# Read-outs that look alike come from different tables or passages of the source.
# Tests used:
# [1] = cited from earlier work
# [2] = Accelerated stability study at 37° C., BIOD 901 compared to Lilly glucagon (Example 3); type: physicochemical; settings: in solution at pH 4
# [3] = cited from earlier work; remark: listed apart in the source
substance,measurement,setting,value
glucagon,gel formation,[1]; acidic aqueous conditions (pH 3-4),forms a gel
same,precipitation,[1]; neutral aqueous solution,precipitates within an hour of preparation
same,solubility in aqueous solutions,[1]; pH less than 3 or greater than 9,soluble
same,solubility in aqueous solutions,[1]; pH range of 4 to 8,low solubility
same,time to gel,[2],≤ 2 days
same,onset of action post injection,[3],5 to 20 min

# Reference: patent publication US9610329B2 (Albireo Pharma, Inc., priority 2009, dated 2017)
